Numbering of substitutions follows the chain as printed. Names and notes keep the numbering of the source. “Also recorded” adds a separate entry of the source. Read-outs that look alike come from different tables or passages of the source.
Experiments:
ribitol dehydrogenase = assay type: biochemical, Zymomonas mobilis
[1] = molecular target: T1, Zymomonas mobilis ribitol dehydrogenase, wild-type, SEQ ID NO: 4 (Zymomonas mobilis, UniProt Q5NQS1); assay: Dynamical (kinetic) parameters of ribitol dehydrogenase to coenzyme NAD(H)/NADP(H), wild-type; assay type: biochemical; settings: NADP 0.01 to 3 mM
T1 sequence (Q5NQS1 74-338): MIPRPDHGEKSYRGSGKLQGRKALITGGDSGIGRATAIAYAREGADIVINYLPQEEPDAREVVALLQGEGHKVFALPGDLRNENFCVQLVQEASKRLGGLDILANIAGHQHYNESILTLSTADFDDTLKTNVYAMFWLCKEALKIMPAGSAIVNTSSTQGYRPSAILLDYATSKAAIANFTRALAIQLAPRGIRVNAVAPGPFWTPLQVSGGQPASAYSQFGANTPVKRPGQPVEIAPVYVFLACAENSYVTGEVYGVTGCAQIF
Experimental: The optimum pH on dehydrogenation activity of the ribitol dehydrogenase was measured using 20 mM of Tris-HCl buffer. The enzyme activity was determined by monitoring the change per minute in absorbance at 340 nm while the sample was reacted in the presence of NAD(H) and ribitol.
Then, dynamical parameters were measured through a nonlinear regression analysis.

[2] = substrate: NC(=O)c1ccc[n+]([C@@H]2O[C@H](COP(=O)(O)OP(=O)(O)OC[C@H]3O[C@@H](n4cnc5c(N)ncnc54)[C@H](OP(=O)(O)O)[C@@H]3O)[C@@H](O)[C@H]2O)c1; assay: Dynamical parameters to coenzyme, variant S156C; assay type: biochemical, Zymomonas mobilis; settings: other: NADP 0.01 to 3 mM, ribitol, pH 9.0
From the text: (§1) There were no differences between the expression amount of various amino acid variants of Ser 156 and the expression amount of wide-type. The dynamical parameter of each of variants was confirmed using the above variants.

[3] = substrate: NC(=O)c1ccc[n+]([C@@H]2O[C@H](COP(=O)(O)OP(=O)(O)OC[C@H]3O[C@@H](n4cnc5c(N)ncnc54)[C@H](OP(=O)(O)O)[C@@H]3O)[C@@H](O)[C@H]2O)c1; assay: Dynamical parameters to coenzyme, variant S156D; assay type: biochemical, Zymomonas mobilis; settings: other: NADP 0.01 to 3 mM, ribitol, pH 9.0
From the text: In addition, the present invention provides a ribitol dehydrogenase mutant selected from the group consisting of a) a mutant, in which serine, an amino acid at position 156 of the ribitol dehydrogenase having an amino acid sequence as set forth in SEQ ID NO: 4 is substituted with aspartic acid; and b) a mutant, in which tyrosine, an amino acid at position 51 of the ribitol dehydrogenase having an amino acid sequence as set forth in SEQ ID NO: 4 is substituted with aspartic acid and serine, an amino acid at position 156 is substituted with alanine.
The mutants have preferably amino acid sequences as set forth in SEQ ID NOS: 5 and 6, respectively, but the present invention is not limited thereto.
as §1

[4] = Production of L-ribulose from ribitol with cell bodies of recombinant strains expressing the variants; assay type: cell-based, E. coli; settings: whole cells, 25° C., 6 hours
Experimental: The following experiments were performed in order to produce L-ribulose using a ribitol dehydrogenase variant having double coenzyme specificity. The variants prepared by using the method of Example 5-3 were expressed using the method of Example 2; the cell bodies were only collected by centrifuging (8000×g for 10 minutes) the recombinant strain culture solution; and then the cell bodies were washed with distilled water twice. The final Cell OD was measured and the same amount of cells was used for a production experiment. The ribitol and each of recombinant enzyme variants were subjected to an enzyme reaction in 20 mM of Tris-HCl buffer (pH 9.5) at a temperature of 25° C. for 6 hours.

[5] = substrate: NC(=O)c1ccc[n+]([C@@H]2O[C@H](COP(=O)(O)OP(=O)(O)OC[C@H]3O[C@@H](n4cnc5c(N)ncnc54)[C@H](OP(=O)(O)O)[C@@H]3O)[C@@H](O)[C@H]2O)c1; assay: Dynamical parameters to coenzyme, variant S156A; assay type: biochemical, Zymomonas mobilis; settings: other: NADP 0.01 to 3 mM, ribitol, pH 9.0
From the text: as §1

[6] = substrate: NC(=O)c1ccc[n+]([C@@H]2O[C@H](COP(=O)(O)OP(=O)(O)OC[C@H]3O[C@@H](n4cnc5c(N)ncnc54)[C@H](OP(=O)(O)O)[C@@H]3O)[C@@H](O)[C@H]2O)c1; assay: Dynamical parameters to coenzyme, variant S156G; assay type: biochemical, Zymomonas mobilis; settings: other: NADP 0.01 to 3 mM, ribitol, pH 9.0
From the text: as §1

[7] = substrate: NC(=O)c1ccc[n+]([C@@H]2O[C@H](COP(=O)(O)OP(=O)(O)OC[C@H]3O[C@@H](n4cnc5c(N)ncnc54)[C@H](OP(=O)(O)O)[C@@H]3O)[C@@H](O)[C@H]2O)c1; assay: Dynamical parameters to coenzyme, variant S156T; assay type: biochemical, Zymomonas mobilis; settings: other: NADP 0.01 to 3 mM, ribitol, pH 9.0
From the text: as §1

[8] = substrate: NC(=O)c1ccc[n+]([C@@H]2O[C@H](COP(=O)(O)OP(=O)(O)OC[C@H]3O[C@@H](n4cnc5c(N)ncnc54)[C@H](OP(=O)(O)O)[C@@H]3O)[C@@H](O)[C@H]2O)c1; assay: Dynamical parameters to coenzyme, variant S156E; assay type: biochemical, Zymomonas mobilis; settings: other: NADP 0.01 to 3 mM, ribitol, pH 9.0
From the text: as §1

[9] = substrate: NC(=O)c1ccc[n+]([C@@H]2O[C@H](COP(=O)(O)OP(=O)(O)OC[C@H]3O[C@@H](n4cnc5c(N)ncnc54)[C@H](OP(=O)(O)O)[C@@H]3O)[C@@H](O)[C@H]2O)c1; assay: Dynamical parameters to coenzyme, variant S156W; assay type: biochemical, Zymomonas mobilis; settings: other: NADP 0.01 to 3 mM, ribitol, pH 9.0
From the text: as §1

[10] = substrate: NC(=O)c1ccc[n+]([C@@H]2O[C@H](COP(=O)(O)OP(=O)(O)OC[C@H]3O[C@@H](n4cnc5c(N)ncnc54)[C@H](OP(=O)(O)O)[C@@H]3O)[C@@H](O)[C@H]2O)c1; assay: Dynamical parameters to coenzyme, variant S156Y; assay type: biochemical, Zymomonas mobilis; settings: other: NADP 0.01 to 3 mM, ribitol, pH 9.0
From the text: as §1

[11] = metal ion 10 mM, enzyme treated with 10 mM EDTA for 24 hours and dialyzed

For `[Cl-].[Cl-].[Co+2]` [CoCl2], the “Relative activity (%) 10 mM” value (ribitol dehydrogenase) was 62.5% and the “activity of enzyme in the presence of metal ion (in words)” value (ribitol dehydrogenase) was “maximum enzyme activity; also recorded: the activity of enzyme was observed”.

For `[Cl-].[Cl-].[Mg+2]` [MgCl2], the “Relative activity (%) 10 mM” value (ribitol dehydrogenase; [11]) was 0.4%.

In the case of `O=S(=O)([O-])[O-].[Cu+2]` [CuSO4], the “Relative activity (%) 10 mM” value (ribitol dehydrogenase; [11]) is reported as 0.1%.

In the case of `NC(=O)c1ccc[n+]([C@@H]2O[C@H](COP(=O)(O)OP(=O)(O)OC[C@H]3O[C@@H](n4cnc5c(N)ncnc54)[C@H](OP(=O)(O)O)[C@@H]3O)[C@@H](O)[C@H]2O)c1` [NADP^+], the “kcat (NADP^+)” value [1] is reported as 2.79 ± 0.15 s⁻¹.

With `[Cl-].[Cl-].[Zn+2]` [ZnCl2] the “Relative activity (%) 10 mM” value (ribitol dehydrogenase; [11]) was 0.3%.

With `[Cl][Mn][Cl]` [MnCl2] the “Relative activity (%) 10 mM” value (ribitol dehydrogenase; [11]) was 100% and the “activity of enzyme in the presence of metal ion (in words)” value (ribitol dehydrogenase; metal ion 10 mM, listed as Mn^2+) was “maximum enzyme activity; also recorded: the activity of enzyme was observed”.

In the case of `[Ca+2].[Cl-].[Cl-]` [CaCl2], the “Relative activity (%) 10 mM” value (ribitol dehydrogenase; [11]) is reported as 1.1%.

For `[Cl][Fe]([Cl])[Cl]` [FeCl3], the “Relative activity (%) 10 mM” value (ribitol dehydrogenase; [11]) was 0.2%.

B1: Zymomonas mobilis ribitol dehydrogenase (SEQ ID NO: 4) variant S156C (Zymomonas mobilis subsp. mobilis ZM4 = ATCC 31821; S229C) (protein)
chain: T1 sequence (Q5NQS1 74-338) with S156C
B1 gave a Km [2] of 170 ± 20 µM, a kcat [2] of 2.05 ± 0.10 s⁻¹ and a kcat/Km [2] of 12100 M⁻¹ s⁻¹.

B2: Zymomonas mobilis ribitol dehydrogenase (SEQ ID NO: 4) variant S156D, SEQ ID NO: 5 (Zymomonas mobilis subsp. mobilis ZM4 = ATCC 31821; N321D/S229D) (protein)
chain: T1 sequence (Q5NQS1 74-338) with S156D, N248D
B2 gave a Km [3] of 300 ± 30 µM, a kcat [3] of 2.46 ± 0.21 s⁻¹ and a kcat/Km [3] of 8200 M⁻¹ s⁻¹.

B3: S156D: mutant in which serine at position 156 of SEQ ID NO: 4 is substituted with aspartic acid (SEQ ID NO: 5) (protein)
chain: T1 sequence (Q5NQS1 74-338) with S156D, N248D
modifications: mutant
For B3, the “L-ribulose produced, concentration” value ([4]; 20 mM Tris-HCl buffer pH 9.5, HPLC) was 1.21 g/L and the “conversion rate of L-ribulose in the whole cell level compared with wild-type (in words)” value ([4]; pH 9.5) was “higher”.

B4: Zymomonas mobilis ribitol dehydrogenase (SEQ ID NO: 4) variant S156A (Zymomonas mobilis subsp. mobilis ZM4 = ATCC 31821; S229A) (protein)
chain: T1 sequence (Q5NQS1 74-338) with S156A
For B4, the Km [5] was 390 ± 130 µM, the kcat [5] was 1.19 ± 0.07 s⁻¹ and the kcat/Km [5] was 3050 M⁻¹ s⁻¹.

B5: Zymomonas mobilis ribitol dehydrogenase (SEQ ID NO: 4) variant S156G (Zymomonas mobilis subsp. mobilis ZM4 = ATCC 31821; S229G) (protein)
chain: T1 sequence (Q5NQS1 74-338) with S156G
In the case of B5, the Km [6] is reported as 340 ± 70 µM, the kcat [6] is reported as 0.72 ± 0.08 s⁻¹ and the kcat/Km [6] is reported as 2120 M⁻¹ s⁻¹.

B6: Zymomonas mobilis ribitol dehydrogenase (SEQ ID NO: 4) variant S156T (Zymomonas mobilis subsp. mobilis ZM4 = ATCC 31821; S229T) (protein)
chain: T1 sequence (Q5NQS1 74-338) with S156T
B6 gave a Km [7] of 220 ± 30 µM, a kcat [7] of 1.64 ± 0.22 s⁻¹ and a kcat/Km [7] of 7450 M⁻¹ s⁻¹.

B7: Zymomonas mobilis ribitol dehydrogenase (SEQ ID NO: 4) variant S156E (Zymomonas mobilis subsp. mobilis ZM4 = ATCC 31821; S229E) (protein)
chain: T1 sequence (Q5NQS1 74-338) with S156E
In the case of B7, the Km [8] is reported as 350 ± 40 µM, the kcat [8] is reported as 2.39 ± 0.15 s⁻¹ and the kcat/Km [8] is reported as 6830 M⁻¹ s⁻¹.

B8: Zymomonas mobilis ribitol dehydrogenase (SEQ ID NO: 4) variant S156W (Zymomonas mobilis subsp. mobilis ZM4 = ATCC 31821; S229W) (protein)
chain: T1 sequence (Q5NQS1 74-338) with S156W
B8 gave a Km [9] of 210 ± 30 µM, a kcat [9] of 2.05 ± 0.11 s⁻¹ and a kcat/Km [9] of 9760 M⁻¹ s⁻¹.

B9: Zymomonas mobilis ribitol dehydrogenase (SEQ ID NO: 4) variant S156Y (Zymomonas mobilis subsp. mobilis ZM4 = ATCC 31821; S229Y) (protein)
chain: T1 sequence (Q5NQS1 74-338) with S156Y
Work on B9 yielded a Km [10] of 230 ± 130 µM, a kcat [10] of 1.42 ± 0.16 s⁻¹ and a kcat/Km [10] of 6170 M⁻¹ s⁻¹.

From patent US9005937B2, “Dual cofactor specific ribitol dehydrogenase and use thereof” (Konkuk University Industrial Cooperation Corp., priority 2011, dated 2015)
